Laboratory results reported in patent US20220306695A1, “COMPSTATIN ANALOGUES AND THEIR MEDICAL USES” (priority 2019, published 2022).
Starred links: 1 amine or outer side, 2 acyl side, 3 side chain; linkers in the order of their positions; H or OH if unused. Positions of bridges follow the written chain, without caps; N, C: chain ends. Non-standard residues stand in square brackets, D forms with d. Groups on a side chain read outwards from the residue. *: point of attachment. Trp(1-Me) = Cn1cc(C[C@H](N)C(=O)O)c2ccccc21; C18 diacid = O=C(O)CCCCCCCCCCCCCCCCC(=O)*; C16 diacid = O=C(O)CCCCCCCCCCCCCCC(=O)*; γGlu = O=C(O)[C@H](CCC(=O)[*:2])N[*:1]; hCys = N[C@@H](CCS)C(=O)O; AEEA = NCCOCCOCC(=O)O; Sar = CNCC(=O)O

Tests used:
Human C3 [1] = molecular target: T1, Human C3 (human, UniProt P01024 23-1663); experiment: SPR, C3 immobilised
T1 construct: In SPR the bought human C3 was immobilised on CM5 chips by amine coupling; In the haemolysis assay the C3 is that of diluted human serum; also called complement C3
Procedure: Surface plasmon resonance (SPR) was used to characterize peptides with respect to their binding affinity (Kd) for C3. Human C3 (Complement tech cat #A1 13c) was immobilised on individual flow cells of CM5 sensor chips (GE Healthcare) using standard amine coupling to a density of approximately 3000 resonance units (RU) in a buffer consisting of 10 mM phosphate pH 7.4, 150 mM NaCl, 0.05% Tween20.
For interaction experiments a multi-cycle experiment approach was used and performed using either a Biacore™ T200 or Biacore™ X100 instrument (GE Healthcare) at 25° C. Peptides were injected in increasing concentration series (5-8 different concentrations) for 60-120 s at a flow rate of 30 μL/min in a buffer consisting of 10 mM Tris buffer at pH 7.4, with 150 mM NaCl and 0.05% Tween20. This was followed by a dissociation period for up to 10 min. The C3 surface was regenerated between runs by a 45 s injection of 3 M MgCl₂.
Sensorgrams were double-referenced (reference surface, blanks) prior to analysis of the kinetic profiles by globally fitting data to a 1:1 Langmuir binding model to obtain association and dissociation rates for calculation of the equilibrium dissociation constant Kd. Each peptide was tested at in at least 2 independent experiments.

Human C3 [2] = molecular target: T1, Human C3; experiment: cell-based or functional assay

T1 sequence (P01024 23-1663 limits assumed): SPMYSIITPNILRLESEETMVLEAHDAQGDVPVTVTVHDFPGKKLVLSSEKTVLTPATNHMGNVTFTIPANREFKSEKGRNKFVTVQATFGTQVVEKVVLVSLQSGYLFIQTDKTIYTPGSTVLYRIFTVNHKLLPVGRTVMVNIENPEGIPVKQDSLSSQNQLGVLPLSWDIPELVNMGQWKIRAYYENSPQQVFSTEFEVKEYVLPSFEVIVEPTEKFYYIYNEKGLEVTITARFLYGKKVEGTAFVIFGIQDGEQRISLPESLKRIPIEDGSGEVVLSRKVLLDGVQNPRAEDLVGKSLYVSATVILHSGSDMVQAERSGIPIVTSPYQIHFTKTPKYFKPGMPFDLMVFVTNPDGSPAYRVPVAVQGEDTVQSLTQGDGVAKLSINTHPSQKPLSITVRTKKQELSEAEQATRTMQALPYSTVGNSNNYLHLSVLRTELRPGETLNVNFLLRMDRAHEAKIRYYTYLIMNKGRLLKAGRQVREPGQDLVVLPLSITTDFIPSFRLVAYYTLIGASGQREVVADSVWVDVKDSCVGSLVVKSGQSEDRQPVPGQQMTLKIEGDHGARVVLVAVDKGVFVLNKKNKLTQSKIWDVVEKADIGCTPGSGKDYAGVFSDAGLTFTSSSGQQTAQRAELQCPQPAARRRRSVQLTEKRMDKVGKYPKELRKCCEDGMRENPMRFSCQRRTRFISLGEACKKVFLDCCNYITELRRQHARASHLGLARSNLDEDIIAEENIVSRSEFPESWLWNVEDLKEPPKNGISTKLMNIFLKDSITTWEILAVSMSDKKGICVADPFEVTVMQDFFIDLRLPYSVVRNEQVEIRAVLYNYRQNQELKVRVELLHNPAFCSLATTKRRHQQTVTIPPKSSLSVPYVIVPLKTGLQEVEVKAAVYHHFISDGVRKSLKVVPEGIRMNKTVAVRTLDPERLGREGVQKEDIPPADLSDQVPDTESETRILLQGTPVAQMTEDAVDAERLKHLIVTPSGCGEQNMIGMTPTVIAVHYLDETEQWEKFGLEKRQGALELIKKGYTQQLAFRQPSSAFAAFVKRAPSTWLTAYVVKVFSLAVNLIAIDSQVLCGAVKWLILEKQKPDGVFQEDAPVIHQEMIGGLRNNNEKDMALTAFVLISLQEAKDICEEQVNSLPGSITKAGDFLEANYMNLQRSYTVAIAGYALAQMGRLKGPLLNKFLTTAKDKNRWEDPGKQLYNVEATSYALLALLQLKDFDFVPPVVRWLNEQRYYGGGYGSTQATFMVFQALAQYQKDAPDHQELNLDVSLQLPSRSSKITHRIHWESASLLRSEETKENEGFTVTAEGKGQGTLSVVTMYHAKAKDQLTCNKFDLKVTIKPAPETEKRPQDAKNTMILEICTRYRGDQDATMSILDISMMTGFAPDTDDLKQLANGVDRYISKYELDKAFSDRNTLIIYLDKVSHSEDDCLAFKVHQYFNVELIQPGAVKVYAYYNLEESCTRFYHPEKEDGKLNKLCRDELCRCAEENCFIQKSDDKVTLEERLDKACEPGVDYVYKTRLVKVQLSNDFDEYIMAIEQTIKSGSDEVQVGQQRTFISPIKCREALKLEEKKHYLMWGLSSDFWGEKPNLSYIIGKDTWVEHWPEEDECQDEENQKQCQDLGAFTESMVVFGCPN

Row | Binder | Kd (Human C3 [1]) [nM] | IC50[nM], inhibition of hemolysis (Human C3 [2]) [nM]
1 | Ac-EGSAYCI[Trp(1-Me)]QDWGEHRC[Sar]EGK([AEEA-AEEA-γGlu-C16 diacid])-NH2 (disulfide 6-16; SMILES CC[C@H](C)[C@@H]1NC(=O)[C@@H](NC(=O)[C@H](Cc2ccc(O)cc2)NC(=O)[C@H](C)NC(=O)[C@H](CO)NC(=O)CNC(=O)[C@H](CCC(=O)O)NC(C)=O)CSSC[C@@H](C(=O)N(C)CC(=O)N[C@@H](CCC(=O)O)C(=O)NCC(=O)N[C@@H](CCCCNC(=O)COCCOCCNC(=O)COCCOCCNC(=O)CC[C@H](NC(=O)CCCCCCCCCCCCCCC(=O)O)C(=O)O)C(N)=O)NC(=O)[C@H](CCCNC(=N)N)NC(=O)[C@H](Cc2c[nH]cn2)NC(=O)[C@H](CCC(=O)O)NC(=O)CNC(=O)[C@H](Cc2c[nH]c3ccccc23)NC(=O)[C@H](CC(=O)O)NC(=O)[C@H](CCC(N)=O)NC(=O)[C@H](Cc2cn(C)c3ccccc23)NC1=O) [Compound 104] | 34 | < 100
2 | Ac-EGSAYCI[Trp(1-Me)]QDWGEHRC[Sar]E-NH2 (disulfide 6-16; SMILES CC[C@H](C)[C@@H]1NC(=O)[C@@H](NC(=O)[C@H](Cc2ccc(O)cc2)NC(=O)[C@H](C)NC(=O)[C@H](CO)NC(=O)CNC(=O)[C@H](CCC(=O)O)NC(C)=O)CSSC[C@@H](C(=O)N(C)CC(=O)N[C@@H](CCC(=O)O)C(N)=O)NC(=O)[C@H](CCCNC(=N)N)NC(=O)[C@H](Cc2c[nH]cn2)NC(=O)[C@H](CCC(=O)O)NC(=O)CNC(=O)[C@H](Cc2c[nH]c3ccccc23)NC(=O)[C@H](CC(=O)O)NC(=O)[C@H](CCC(N)=O)NC(=O)[C@H](Cc2cn(C)c3ccccc23)NC1=O) [Compound 54] | 3 | < 100
3 | {C16 diacid}-EGSEYCI[Trp(1-Me)]QDWGEHRC[Sar]E-NH2 (disulfide 6-16; SMILES CC[C@H](C)[C@@H]1NC(=O)[C@@H](NC(=O)[C@H](Cc2ccc(O)cc2)NC(=O)[C@H](CCC(=O)O)NC(=O)[C@H](CO)NC(=O)CNC(=O)[C@H](CCC(=O)O)NC(=O)CCCCCCCCCCCCCCC(=O)O)CSSC[C@@H](C(=O)N(C)CC(=O)N[C@@H](CCC(=O)O)C(N)=O)NC(=O)[C@H](CCCNC(=N)N)NC(=O)[C@H](Cc2c[nH]cn2)NC(=O)[C@H](CCC(=O)O)NC(=O)CNC(=O)[C@H](Cc2c[nH]c3ccccc23)NC(=O)[C@H](CC(=O)O)NC(=O)[C@H](CCC(N)=O)NC(=O)[C@H](Cc2cn(C)c3ccccc23)NC1=O) [Compound 107] | 6.1 | < 100
4 | Ac-EGSAYCI[Trp(1-Me)]QDWGEHRC[Sar]EK[γGlu]K([AEEA-AEEA-γGlu-C18 diacid])-NH2 (disulfide 6-16; SMILES CC[C@H](C)[C@@H]1NC(=O)[C@@H](NC(=O)[C@H](Cc2ccc(O)cc2)NC(=O)[C@H](C)NC(=O)[C@H](CO)NC(=O)CNC(=O)[C@H](CCC(=O)O)NC(C)=O)CSSC[C@@H](C(=O)N(C)CC(=O)N[C@@H](CCC(=O)O)C(=O)N[C@@H](CCCCN)C(=O)N[C@@H](CCC(=O)N[C@@H](CCCCNC(=O)COCCOCCNC(=O)COCCOCCNC(=O)CC[C@H](NC(=O)CCCCCCCCCCCCCCCCC(=O)O)C(=O)O)C(N)=O)C(=O)O)NC(=O)[C@H](CCCNC(=N)N)NC(=O)[C@H](Cc2c[nH]cn2)NC(=O)[C@H](CCC(=O)O)NC(=O)CNC(=O)[C@H](Cc2c[nH]c3ccccc23)NC(=O)[C@H](CC(=O)O)NC(=O)[C@H](CCC(N)=O)NC(=O)[C@H](Cc2cn(C)c3ccccc23)NC1=O) [Compound 111] | 8.2 | < 100
5 | Ac-SEYCI[Trp(1-Me)]QDWGEHRC[Sar]EGE[AEEA][AEEA]K([γGlu-Gly-γGlu-C18 diacid])-NH2 (disulfide 4-14) [Compound 117] | 24 | < 250
6 | Ac-SEFCI[Trp(1-Me)]QEWGEHRC[Sar]EGE[AEEA][AEEA]K([γGlu-Gly-γGlu-C18 diacid])-NH2 (disulfide 4-14; SMILES CC[C@H](C)[C@@H]1NC(=O)[C@@H](NC(=O)[C@H](Cc2ccccc2)NC(=O)[C@H](CCC(=O)O)NC(=O)[C@H](CO)NC(C)=O)CSSC[C@@H](C(=O)N(C)CC(=O)N[C@@H](CCC(=O)O)C(=O)NCC(=O)N[C@@H](CCC(=O)O)C(=O)NCCOCCOCC(=O)NCCOCCOCC(=O)N[C@@H](CCCCNC(=O)CC[C@H](NC(=O)CNC(=O)CC[C@H](NC(=O)CCCCCCCCCCCCCCCCC(=O)O)C(=O)O)C(=O)O)C(N)=O)NC(=O)[C@H](CCCNC(=N)N)NC(=O)[C@H](Cc2c[nH]cn2)NC(=O)[C@H](CCC(=O)O)NC(=O)CNC(=O)[C@H](Cc2c[nH]c3ccccc23)NC(=O)[C@H](CCC(=O)O)NC(=O)[C@H](CCC(N)=O)NC(=O)[C@H](Cc2cn(C)c3ccccc23)NC1=O) [Compound 124] | 31 | < 100
7 | Ac-SEFCI[Trp(1-Me)]QDWGEHRC[Sar]EGAK([AEEA-γGlu-AEEA-Gly-γGlu-C18 diacid])-NH2 (disulfide 4-14; SMILES CC[C@H](C)[C@@H]1NC(=O)[C@@H](NC(=O)[C@H](Cc2ccccc2)NC(=O)[C@H](CCC(=O)O)NC(=O)[C@H](CO)NC(C)=O)CSSC[C@@H](C(=O)N(C)CC(=O)N[C@@H](CCC(=O)O)C(=O)NCC(=O)N[C@@H](C)C(=O)N[C@@H](CCCCNC(=O)COCCOCCNC(=O)CC[C@H](NC(=O)COCCOCCNC(=O)CNC(=O)CC[C@H](NC(=O)CCCCCCCCCCCCCCCCC(=O)O)C(=O)O)C(=O)O)C(N)=O)NC(=O)[C@H](CCCNC(=N)N)NC(=O)[C@H](Cc2c[nH]cn2)NC(=O)[C@H](CCC(=O)O)NC(=O)CNC(=O)[C@H](Cc2c[nH]c3ccccc23)NC(=O)[C@H](CC(=O)O)NC(=O)[C@H](CCC(N)=O)NC(=O)[C@H](Cc2cn(C)c3ccccc23)NC1=O) [Compound 119] | 9.8 | < 100
8 | Ac-SEYCI[Trp(1-Me)]QEWGEHRC[Sar]EGAK([AEEA-γGlu-AEEA-Gly-γGlu-C18 diacid])-NH2 (disulfide 4-14; SMILES CC[C@H](C)[C@@H]1NC(=O)[C@@H](NC(=O)[C@H](Cc2ccc(O)cc2)NC(=O)[C@H](CCC(=O)O)NC(=O)[C@H](CO)NC(C)=O)CSSC[C@@H](C(=O)N(C)CC(=O)N[C@@H](CCC(=O)O)C(=O)NCC(=O)N[C@@H](C)C(=O)N[C@@H](CCCCNC(=O)COCCOCCNC(=O)CC[C@H](NC(=O)COCCOCCNC(=O)CNC(=O)CC[C@H](NC(=O)CCCCCCCCCCCCCCCCC(=O)O)C(=O)O)C(=O)O)C(N)=O)NC(=O)[C@H](CCCNC(=N)N)NC(=O)[C@H](Cc2c[nH]cn2)NC(=O)[C@H](CCC(=O)O)NC(=O)CNC(=O)[C@H](Cc2c[nH]c3ccccc23)NC(=O)[C@H](CCC(=O)O)NC(=O)[C@H](CCC(N)=O)NC(=O)[C@H](Cc2cn(C)c3ccccc23)NC1=O) [Compound 122] | 63 | < 500

Continued, in another order:

Row | Kd (Human C3 [1]) [nM] | Binder | IC50[nM], inhibition of hemolysis (Human C3 [2]) [nM]
9 | 71 | Ac-SEYCI[Trp(1-Me)]QEWGEHRC[Sar]EGE[AEEA][AEEA]K([γGlu-Gly-γGlu-C18 diacid])-NH2 (disulfide 4-14; SMILES CC[C@H](C)[C@@H]1NC(=O)[C@@H](NC(=O)[C@H](Cc2ccc(O)cc2)NC(=O)[C@H](CCC(=O)O)NC(=O)[C@H](CO)NC(C)=O)CSSC[C@@H](C(=O)N(C)CC(=O)N[C@@H](CCC(=O)O)C(=O)NCC(=O)N[C@@H](CCC(=O)O)C(=O)NCCOCCOCC(=O)NCCOCCOCC(=O)N[C@@H](CCCCNC(=O)CC[C@H](NC(=O)CNC(=O)CC[C@H](NC(=O)CCCCCCCCCCCCCCCCC(=O)O)C(=O)O)C(=O)O)C(N)=O)NC(=O)[C@H](CCCNC(=N)N)NC(=O)[C@H](Cc2c[nH]cn2)NC(=O)[C@H](CCC(=O)O)NC(=O)CNC(=O)[C@H](Cc2c[nH]c3ccccc23)NC(=O)[C@H](CCC(=O)O)NC(=O)[C@H](CCC(N)=O)NC(=O)[C@H](Cc2cn(C)c3ccccc23)NC1=O) [Compound 125] | < 500
10 | 5.2 | Ac-SEFCI[Trp(1-Me)]QDWGEHRCTEGE[AEEA][AEEA]K([γGlu-Gly-γGlu-C18 diacid])-NH2 (disulfide 4-14) [Compound 126] | < 100
11 | 0.43 | SEFAIWQDWGEHRCGEGEXXK (not fully specified; N-acetyl; C-terminal amide; delta-cystathionine (Ctt2) thioether bridge A4-hCys14 (hCys written C); W6 is 1-Me-Trp; G15 is Sar; X19 and X20 are Peg3; K21 side chain bears [17-carboxy-heptadecanoyl][γGlu]G[γGlu]) [Compound 146] | < 100
12 | 0.5 | GEFAIWQDWGEHRCGEAEXXK (not fully specified; N-acetyl; C-terminal amide; delta-cystathionine (Ctt2) thioether bridge A4-hCys14 (hCys written C); W6 is 1-Me-Trp; G10 is Sar; G15 is Sar; X19 and X20 are Peg3; K21 side chain bears [17-carboxy-heptadecanoyl][γGlu]G[γGlu]) [Compound 149] | < 100
13 | 11.1 | SEFAIWQEWGEHRCGEGEXXK (not fully specified; N-acetyl; C-terminal amide; delta-cystathionine (Ctt2) thioether bridge A4-hCys14 (hCys written C); W6 is 1-Me-Trp; G15 is Sar; X19 and X20 are Peg3; K21 side chain bears [17-carboxy-heptadecanoyl][γGlu]G[γGlu]) [Compound 153] | < 100
14 | 57.4 | Ac-SEF[hCys]I[Trp(1-Me)]QEWGEHRA[Sar]EGE[AEEA][AEEA]K([γGlu-Gly-γGlu-C18 diacid])-NH2 (thioether 4-14) [Compound 167] | < 500
